The values that follow come from the DeepSol protein solubility set.

The data set is described as follows: soluble on expression in E. coli; label from the status in PepcDB or PDB records.
As to “MRGSHHHHHHTDPALRASIKNLPADYLLAAQQGDIDKVKTCLALGVDINTCDRQGKTAITLASLYQQYACVQALIDAGADINKQDHTCLNPFLISCLNDDLTLLRIILPAKPDLNCVTRFGGVGLTPACEKGHLSIVKELLAHTEINVNQTNHVGWTPLLEAIVLNDGGIKQQAIVQLLLEHGASPHLTDKYGKTPLELARERGFEEIAQLLIAAGAGLCGR”, the “soluble on expression in E. coli” value is recorded as “soluble”.

“MGSDKIHHHHHHMLSLGLADSRAISKANSGSERHVREVIKRLSLRYKLYYLPTTHAFLDAISEDQLKEIKKFAKVPSFFEYLLDKKLGKVSLLRELFTFSPLAKELVREYEREIGILDFIYVPHTYRIQLMPSILFSKLSRGKYGMLLMTDPHNSLLEKESFFKCVNVWSKIWFSRKSAIEFCSFQRLQNIAFLLKAIKTKPSFISVMNKCALNYTGLPKYFNTKVLSPPHAFNNLALKYRNFDKEDYLVFLGRINTAKGANEALEVGKHVKLKMIGYKEQEFIVKQARSFGIEVIENVSEEEKFEILSKARALVLPSHQESFSVTILEALAVGTPVITYDLPSLTSTYNFKPVFFVKEFDVKGLVNTALEVYNMKKIEEMFNDERLEEFIKMHSSWDNVSNAVDKLITEAIQE”: the “soluble on expression in E. coli” value was “not soluble”.

As for “MACKRLVPGGEIERTRRVLDLFADSGSRVIRPQQPVDVLGSEGPAKVLGQVQNNVAVQYDHMVRGIGHDTGLESDQVCRLTERGICVRELLTLVFGDKALGAEHGDIRRGHTQDAGVL”, the “soluble on expression in E. coli” value is “not soluble”.

For the sequence “MAHHHHHHMEDAQSGRASFSLRVPLCELLPKDSSLTDSPQNAVNLLYTICFSNTELKLRMKVTNTSEEQSAPFQFAFHTYFAVSDVSRTVVSGVNRSPFVDNCKARGNPDAPPSPPEQLWIIRGEHDRVYPDQACAIVLQDMGAKTTLQISSPNLSDVCLWNPGESKCAAMKDMPPDGYKHFVCVEHGKMLKKVVVPPCSSWTGTQEIAIIAESPHESSI”, the “soluble on expression in E. coli” value is reported as “not soluble”.

For “MDDVLDRIMGSAPSQSGSSLNRTPKRDHRSNPDMHEPSSKRSAPMFTTPKSATPIGRDSFATLDTLNVQMNMFTMDIKDMPHKLQRLQVDVIICSSNGKQINVNLGVLAAKGDVNSHNRRLAQFFIMRAVHDKLPEKFSGKSHHFLAYDCAATLYVPEGVYTGDAEEQVTLKIDDFPKDEWKIVSKLSRRKDDSYLVTLKPAGFVHTQGEHARAEANRMELTRCVEIITSQMLNNEDYYQFANCPNREAVAVDEVVTAEASPEIHVEVTVAAVLIQEIIVEVTATEVERYRDESRGCRDMNDSRRDSSNGVDYSPSDAAEVEKALGERGSTKRFIEDALKGLDVECTRLKGNLIRVCSIAENNAENTSFMMKGDKGEQEITVVQYFQLQYNIKLKHSRLPLVVSKRFKHESFFPMELLQIAPGQRIKVNKMSPTVQSSMTGMNASMPEQHVKLVQNILIDNLKLKQSKYMDAFGIRLMSTKPLQLPAKLLPPAQIKFKNQTYMPEMSRPAFRTQDKFVQPAHIGRIGVVVFDNCIQMRQAESFCDNLAAICRDNGIKIDQDSRDWTICEINSSDAAGIQNRMRKWADDKVDILFAITREKKPDVHDILKYYEESIGLQTIQVCQQTVDKMMGGGGGRQTIDNVMRKFNLKCGGTNFFDEIPSSVRGRAVCSNSETLSKKLFEHVQFIGFEISHGAARTLFDRSRSQLDGEPSVVGVSYSLTNSTQLGGFTYLQTQKEYKLQKLGEVFPKCVQSYKEHSRRLPTRIVIYRVGAGEGDFKRVKEEIEEIRGTFDKIQPGYRPHLVVVIAQIASHARVFPSNITGRKAMEQNVPSGTCVDNVPTSYGYDEFILSSRTPLIGTVRPCKYTILINDANWSKNEIMHLTYFRAFGHQVSYKPPSVPDVLYAAENLAKRGRNNYKIHQRHVNLQAVENSIIGDHSELINEDMREELAAAIVDHMSVAMNGMTISKRNFWA”, the “soluble on expression in E. coli” value was “not soluble”.

On to “QLNQILRAANLHSFAVANLRQVEHATRPTKTMSAGLTIINVPAFYSSQHQLQKQYWTQLQHLIKQTKPTTDLILNFAANTGGSSAPMIAGLAAIIPDGTIYTGITNHHRNRPRMMYHGRITGGLGQDDVNFSQPTAAHFRHIYAIIGNQTASAAEVTIMALKRNPHVTLVGRSSAGYTSLNGGVFLNTAVAVMTIGTLKATVKIHGQQYFNNQPLKPDIPTLYQPLAPLQLGQSPHLDADFLSELRTIMKHYH”, for which the “soluble on expression in E. coli” value is recorded as “not soluble”.

With “MSLEEVIEQLREANEPVPVPLELPDEDQLVEIEEQLFINIPFVFKEFLLTVSDVVYGSLEPVTVTDPQSHTYLPEVCATAWDLGVPRELIPICQDGEDYYCVEEDGTVLLWSAEEELVTEESWESVWHWARDVWLESEGHHHHHH”, the “soluble on expression in E. coli” value was “soluble”.

Regarding “TIKRMECFDISHTMGSQTVASCVVFDENGPLKSDYRRFNIEGITGGDDYAGMEQALVKRYDKPLPIEKIPDIIFIDGGKGQLNRALQVFEKLTVAWDKHKPLLIGVAKGAERKAGLETLIIGRLKKEIHLPIDSPALHLIQHIRDESHHHAISGHRKKRQKA”, the “soluble on expression in E. coli” value is recorded as “not soluble”.

As to “MSLSQNSESGNYRKYTSRNPLMGIVVSGFMKDLSETIAPLEEVGSIIDIGCGEGFIINCLNRKDITGVDVSKKALNIAKQKNPGCNFCTGSIYDLSFKKSSFDLVIATEVLEHLENPERALREIKRISKKYCIFSVPNEPYFRTMNFLRGKNLTRLGNDIEHLQNWSTKEFVKLVGRHFNVVEVKRPFPWTMVLCEKEGHHHHHH”, the “soluble on expression in E. coli” value is listed as “not soluble”.

Consider “MRVYDMHVHLHEYSDREVEEILDADKSLVVVAVSDDLESAWRTLDLWHTFGGRVVPCLGFHPWNVREGRVWEAWEVLRLAYRYGVPCLGEVGLDRRFVDEYTWRVQNEVFDAFVQLAEDMGVMLNIHAPDAWKHVAHRIGWTSRARFMYHWYTGPATLPRALPEGRVWFSINSAIRVQEKSVRVAREIPLRSLVVESDGPYNYRGLRLSPLMVRETVKLVAEARGEDPGRLMEAISLNSERLLGLL”, for which the “soluble on expression in E. coli” value is reported as “not soluble”.

Consider “MCTSKPKFIPLPEQQSLCSLPNSGCCHVDVKVGRSKWEKRVAVLVQVEGEPDYKIYIYTKPLIGQIYPLNELKKREVKCEKDKVFLVNLASEKGEKITFKATGNNGSIWVAALMSGTFTSPIHETHGHTGGTGTDGTTSNIESDLKEKPDTNVYTGSREGYVPPPAKEGSGSGGKKKDMNNVAVKPDEKKKDSGRKLKKTVSKTITKLSVSESKKKTEKKIAATQKTQEFPIPKTVDEAHTNSEPDGDPLKLKKTITDGNELSLKGATAPTPQKAKLTTPTSTTPASSLTPSNALTPGNEDKKKMTTDSEEIELHEKKK”, for which the “soluble on expression in E. coli” value was “soluble”.

In the case of “GPGSMDNTEETSRVTDQEERTLTETELPAPAEHVLEGDNSASEENRLHAFLIPLEDGEQFARANLQHRWYRGLTKMLWDEELERNGILIVERGESGRNNQSADEEEEEDDDGTDDCVAKMKREFRIKREQDKIVYEEDSTRTETLREEQNAISLIVTLMEEAMDRSILMNEAETMFALILDVLKPRVHYRYIYAWGVVTCCSFKPLKSEMDRLRPSDRHKPPYMRKSLPTCRVPLEPIYYLPDGGKKMRAMNELNDVRAIGWV”, the “soluble on expression in E. coli” value is “not soluble”.

Take “MGHHHHHHHHHHSSGHIDDDDKHMYTKIIGTGSYLPEQVRTNADLEKMVDTSDEWIVTRTGIRERHIAAPNETVSTMGFEAATRAIEMAGIEKDQIGLIVVATTSATHAFPSAACQIQSMLGIKGCPAFDVAAACAGFTYALSVADQYVKSGAVKYALVVGSDVLARTCDPTDRGTIIIFGDGAGAAVLAASEEPGIISTHLHADGSYGELLTLPNADRVNPENSIHLTMAGNEVFKVAVTELAHIVDETLAANNLDRSQLDWLVPHQANLRIISATAKKLGMSMDNVVVTLDRHGNTSAASVPCALDEAVRDGRIKPGQLVLLEAFGGGFTWGSALVRF”: the “soluble on expression in E. coli” value is on record as “soluble”.

For the sequence “MSLHLYTKHIYFIGGKGGVGKSTSAASFAWRCAERGEKTLLISTDPAHNLGDLFHTEIGAKHKKITDNLFATEIDPEQETRRYIQSVKDNLRGMVKSTMLDEVNRQIDAAAATPGADEAAMFNAISSIVLDEQGTYDKLVFDTAPTGHTIRLLTLPEMMGVWIDGMVKKRKKINENYSNLLNDGEPVDDPIYDTLQQRKERFAAVRNVLLDPKKTGFMFVLIPERLPILETEKAVKLLAKHDLHVETLIINKILPDVADGQFLEKRRQIEQRYLQQIHNTFRKQTLLRVPLFPEDIGSIEALYHFARYLEPTAEGHHHHHH”, the “soluble on expression in E. coli” value is recorded as “soluble”.
